We go through five molecules from patent US20080063646A1 (AbbVie / Abbott, published 2008).

Substitutions are numbered along the chain they refer to. Names and notes keep the numbering of the source. Values joined by “and” are separate entries in the source; they are usually repeats but may differ in a detail not shown here. Equal entries are not always repeated.

The target in experiment [1] is T1, recombinant human IP-10 (R&D Systems) (human, UniProt P02778 22-98).
T1 construct: Bought recombinant protein; also called CXCL10; rhIP-10
T1 sequence: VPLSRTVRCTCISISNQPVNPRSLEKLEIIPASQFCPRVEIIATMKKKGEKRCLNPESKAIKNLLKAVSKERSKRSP
As to the kind of experiment: Biacore. A general note: In SPR one partner is held on a chip, and binding of the other changes the refractive index at the surface.

Experiment [2] deals with T1, recombinant human IP-10 (R&D Systems). As to the kind of experiment: cell-based or functional assay.
The target of experiment [3] is T2, B lymphocyte chemokine (BLC) (UniProt O43927 23-109, limits assumed).
T2 sequence (looked up): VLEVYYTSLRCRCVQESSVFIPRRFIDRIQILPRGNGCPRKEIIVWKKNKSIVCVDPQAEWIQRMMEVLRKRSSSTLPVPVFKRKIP
As to the kind of experiment: ELISA with hybridoma supernatants.

B1: HuAIP12 G104A variant antibody (antibody, V domains shown)
VH: EVQLVQSGAEVKKPGATVKISCKVSGYTFTDYSMHWVRQAPGKGLKWMGWINTETGEPTYADDFKGRFTFTLDTSTSTAYMELSSLRSEDTAVYYCARNYDYDAYFDVWGQGTTVTVSS
VL: DIQMTQSPSSLSASVGDRVTITCKASQDINKYIAWYQQKPGKAPKLLIHYTSTLQPGIPSRFSGSGSGRDYTFTISSLQPEDIATYYCLQYDNLLFTFGQGTKLEIK
notes: Human gamma-1 / kappa, transiently expressed in 293-H cells
Take B1: in experiment [1], the “fold faster off-rate (kd) than unmodified HuAIP12” value is approximately 2 fold, the “fold higher Kd than unmodified HuAIP12” value was more than 20 fold, the “fold slower on-rate (ka) than unmodified HuAIP12” value was approximately 10 fold and the “fold weaker monovalent interaction than unmodified HuAIP12” value amounted to 20 fold.

B2: humanized monoclonal antibody HuAIP13 (antibody, IgG1, V domains shown)
VH: B1 VH with T55I
VL: B1 VL with S26D, I48L, Y50H, N93S
Regarding B2, in experiment [2], the “IC50 of inhibition of chemotaxis, donor 215” value (from here on “IC50 of inhibition … donor 215”) turned out to be 139 ng/mL; the “IC50 of inhibition of chemotaxis, donor 318” value (shortened to “IC50 of inhibition … donor 318”) is 45 ng/mL; the “IC50 of inhibition of chemotaxis, donor 1012” value came out at 77 ng/mL.

B3: humanized monoclonal antibody HuAIP12 (antibody, IgG1, V domains shown)
VH: B1 VH with A104G
VL: B1 VL
For the molecule B3, in experiment [2], the “IC50 of inhibition … donor 215” value turned out to be 142 ng/mL; the “IC50 of inhibition … donor 318” value was determined as 38 ng/mL; the “IC50 of inhibition of chemotaxis, donor 1012” value was 73 ng/mL.

B4: murine monoclonal antibody AIP12 (antibody, V domains shown)
VH: QIQLVQSGPELKKPGETVKISCKASGYTFTDYSMHWVKQAPGKGLKWMGWINTETGEPTYADDFKGRFAFSLETSASTAYLQINNLKNEDTATYFCARNYDYDGYFDVWGAGTTVTVSS
VL: DIQMTQSPSSLSASLGGKVTITCKASQDINKYIAWYQHKPGKGPRLLIHYTSTLQPGIPSRFSGSGSGRDYSFSISNLEPEDIATYYCLQYDNLLFTFGSGTKLEIK
notes: Mouse hybridoma antibody; Mouse IgG1/kappa is used as its isotype control; also called MuAIP12; MUAIP12
Take B4: in experiment [2], the “IC50 of inhibition … donor 215” value is 130 ng/mL; the “IC50 of inhibition … donor 318” value is 41 ng/mL; the “IC50 of inhibition of chemotaxis, donor 1012” value turned out to be 91 ng/mL; the “IC50 of inhibition of chemotaxis, donor 1022” value was 135 ng/mL and 51 ng/mL and 86 ng/mL. For the same molecule, in experiment [3], the binding result is “no binding”.

B5: murine monoclonal antibody AIP13 (antibody, V domains shown)
VH: B4 VH with T55I, G104A
VL: B4 VL with S26D, K42R, I48L, Y50H, E81A, N93S
notes: Mouse hybridoma antibody; Mouse IgG1/kappa is used as its isotype control; also called MuAIP13
For B5, in experiment [2], the “IC50 of inhibition … donor 215” value turned out to be 260 ng/mL; the “IC50 of inhibition … donor 318” value is 139 ng/mL; the “IC50 of inhibition of chemotaxis, donor 1012” value worked out at 84 ng/mL; the “IC50 of inhibition of chemotaxis, donor 1022” value is 229 ng/mL and 154 ng/mL and 78 ng/mL. Further, in experiment [3], the binding result was “no binding”.
